Experimental data: US20250170067A1 (published 2025)

Legend:
[1] = target: T1, ABRAXANE® / albumin-bound paclitaxel (UniProt P02768 25-609, paclitaxel non-covalently bound); assay: flow cytometry of particles stained with goat anti-mouse IgG and PE
T1 construct: Nanoparticle of many albumin molecules with paclitaxel, not a single polypeptide; also called ABX; Paclitaxel Albumin-stabilized Nanoparticle Formulation

[2] = target: AB160 (nanoparticle of albumin-bound paclitaxel and bevacizumab, ratio about 10:4, average size 160 nm) (UniProt P02768); assay: as above
VEGF = VEGF (UniProt P15692); assay: co-incubation of VEGF with particles, particulate removed, free VEGF in supernatant measured by ELISA
[3] = target: T1, ABRAXANE® / albumin-bound paclitaxel; assay: as above
Description: AB160 was prepared as described and 2000 μg/ml VEGF was added to the AB160 complex or ABX alone. The VEGF was incubated with the nanoparticles for 2 hours at room temperature. The suspension was spun at 6000 rpm for 15 minutes, supernatants were collected and free VEGF was measured by ELISA. Briefly, ELISA plates were coated with capture antibody overnight at 4° C. Plates were washed, blocked and standards and samples were added. After washing, detection antibody was added and plates were developed with substrate (R and D Systems, Minneapolis, MN). Absorbance was measured at 450 nm using a Versamax ELISA plate reader (Molecular Devices, Sunnyvale, CA). The concentration of unbound VEGF was determined with a standard curve from 0 to 2000 μg/ml.

## goat anti-mouse IgG (antibody)
[1]
  % positive: 6.7%
[2]
  % positive: 41.2%

## AB160 (nanoparticle of albumin-bound paclitaxel and bevacizumab, ratio about 10:4, average size 160 nm) (from UniProt P02768 25-609)
VEGF
  % VEGF unbound: < 10%

B1: VEGF (ligand, UniProt P15692-4 27-191, looked up)
chain: APMAEGGGQNHHEVVKFMDVYQRSYCHPIETLVDIFQEYPDEIEYIFKPSCVPLMRCGGCCNDEGLECVPTEESNITMQIMRIKPHQGQHIGEMSFLQHNKCECRPKKDRARQENPCGPCSERRKHLFVQDPQTCKCSCKNTDSRCKARQLELNERTCRCDKPRR
[3]
  binding result: no binding (tested: 2000 µg/ml VEGF)
